{"source": "IntAct's records for PubMed 24843043", "parents": {"B1": {"name": "Outer mitochondrial transmembrane helix translocase (Saccharomyces cerevisiae), P28737 (parent)", "chain": "MSRKFDLKTITDLSVLVGTGISLYYLVSRLLNDVESGPLSGKSRESKAKQSLQWEKLVKRSPALAEVTLDAYERTILSSIVTPDEINITFQDIGGLDPLISDLHESVIYPLMMPEVYSNSPLLQAPSGVLLYGPPGCGKTMLAKALAKESGANFISIRMSSIMDKWYGESNKIVDAMFSLANKLQPCIIFIDEIDSFLRERSSTDHEVTATLKAEFMTLWDGLLNNGRVMIIGATNRINDIDDAFLRRLPKRFLVSLPGSDQRYKILSVLLKDTKLDEDEFDLQLIADNTKGFSGSDLKELCREAALDAAKEYIKQKRQLIDSGTIDVNDTSSLKIRPLKTKDFTKKLRMDATSTLSSQPLD", "partner": "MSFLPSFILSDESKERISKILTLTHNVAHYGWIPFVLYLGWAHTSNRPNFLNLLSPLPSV"}, "B2": {"name": "Outer mitochondrial transmembrane helix translocase (Saccharomyces cerevisiae), P28737 (parent)", "chain": "B1 chain", "partner": "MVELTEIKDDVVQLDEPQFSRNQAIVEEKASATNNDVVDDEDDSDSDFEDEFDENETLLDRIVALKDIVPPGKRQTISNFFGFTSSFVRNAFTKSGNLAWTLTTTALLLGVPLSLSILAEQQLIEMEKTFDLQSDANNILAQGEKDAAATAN"}}}
{"variants_of": "B1", "settings": "with tom7_yeast TOM7, P53507"}
{"variant": "E193Q", "effect of a mutation on the interaction": "increasing interaction"}
{"variants_of": "B2", "settings": "with tom22_yeast TOM22, P49334"}
{"variant": "E193Q", "effect of a mutation on the interaction": "increasing interaction"}
